Assay results as given in patent US20240010741A1.

Columns and labels:
cell-expressed CD40 = cell-expressed CD40 (UniProt P25942); test: cell binding on HEK-Blue-CD40L cells, Alexa-Fluor-488 anti-human IgG, high content imaging
recombinant CD40 protein = recombinant CD40 protein (UniProt P25942); test: CD40L competition ELISA: antibody (5 µg/ml) preincubated with recombinant CD40 (1.7 µg/ml), complex added to coated CD40L, detected with anti-human F(ab)2-peroxidase; a high signal means no competition with CD40L (antibody and CD40L bound to CD40 together)
Chain of recombinant CD40 protein (P25942 21-193 limits assumed): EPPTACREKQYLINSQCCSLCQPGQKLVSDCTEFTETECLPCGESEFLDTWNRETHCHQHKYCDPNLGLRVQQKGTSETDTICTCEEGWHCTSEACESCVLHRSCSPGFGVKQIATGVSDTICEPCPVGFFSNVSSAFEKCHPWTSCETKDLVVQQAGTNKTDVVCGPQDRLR

Chain of cell-expressed CD40 (P25942 21-277 limits assumed): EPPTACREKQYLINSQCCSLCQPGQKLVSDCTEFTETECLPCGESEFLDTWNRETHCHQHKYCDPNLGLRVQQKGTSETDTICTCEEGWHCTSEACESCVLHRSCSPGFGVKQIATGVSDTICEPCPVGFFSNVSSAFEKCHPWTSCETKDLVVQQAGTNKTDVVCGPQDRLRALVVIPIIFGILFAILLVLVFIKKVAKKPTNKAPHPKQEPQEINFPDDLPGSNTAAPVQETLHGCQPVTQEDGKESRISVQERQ

Question: CP-870,893 IgG1-LALA (antibody) was tested. Which EC50 (cell-expressed CD40) did it give?
Answer: 0.0145 µg/mL

Question: What about the OD at 450 nm (recombinant CD40 protein) of the same substance?
Answer: 2.54 OD
